Assay results as given in patent US20110159003A1 (DOMANTIS, published 2011).
Substitutions are numbered along the chain they refer to. One block for each binder: values may come before it.

How the values were obtained:
[1] = target: variant IL-13 (R130Q) (human), P35225; assay: cell-based or functional assay
human IL-13 [2] = target: T1, human IL-13 (human, UniProt P35225 35-146, limits assumed, biotinylated on the Biacore chip); assay: IL-13 sandwich ELISA, binder titrated; printed as potency
T1 construct: also called interleukin-13; biotinylated IL-13
T1 sequence (P35225 35-146 limits assumed): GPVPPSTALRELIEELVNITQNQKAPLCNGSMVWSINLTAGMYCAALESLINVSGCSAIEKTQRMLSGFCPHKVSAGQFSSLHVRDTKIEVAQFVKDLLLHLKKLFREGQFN
Description: A MAXISORP™ plate (high protein binding ELISA plate, Nunc, Denmark) was coated overnight with 2.5 μg/ml coating antibody (Module Set, Bender MedSystems, Vienna, Austria), then washed once with 0.05% (v/v) Tween 20 in PBS before blocking with 0.5% (w/v) BSA 0.05% (v/v) Tween 20 in PBS. […] The plate was then incubated with TMB substrate (KPL, Gaithersburg, USA), and the reaction was stopped by the addition of HCl and the absorbance read at 450 nm.

human IL-4 [3] = target: T2, human IL-4 (human, UniProt P05112 25-153, biotinylated in the RBA and on the Biacore chip); assay: IL-4 RBA (ELISA), binder titrated; printed as potency
T2 construct: also called interleukin-4; biotinylated-IL-4
T2 sequence (looked up): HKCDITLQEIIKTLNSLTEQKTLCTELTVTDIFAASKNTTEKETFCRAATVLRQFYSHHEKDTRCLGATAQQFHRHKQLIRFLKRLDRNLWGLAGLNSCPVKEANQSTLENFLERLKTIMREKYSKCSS
Source text: The wells were washed three times with 0.1% (v/v) Tween 20 in PBS, followed by three washes with PBS, before blocking with 2% (w/v) BSA in PBS. […] The reaction was stopped by the addition of HCl and the absorbance read at 450 nm.

human IL-13 [4] = target: T1, human IL-13; assay: Dom10 RBA (text: IL-13 sandwich ELISA), binder titrated
human IL-4 [5] = target: T2, human IL-4; assay: DOM9 RBA (IL-4 RBA), binder titrated
human IL-4 [6] = target: T2, human IL-4; assay: cell-based or functional assay

Chain of variant IL-13 (R130Q) (human), P35225 (P35225 35-146, stated change not applied): as the sequence (P35225 35-146 limits assumed) above

TF-1 proliferation IC50, variant IL-13 [1]: 7.8 nM
B1: DOM10-176-535 (protein)
VL: DIQMTQSPSSLSASVGDRVTITCRASQWIGPYLNWYQQKPGKAPKPLIYMGYWAPSGVPSRFSGSGSGTDFTLTISSLQPEDFATYYCQQDLYPPFTFGQGTKVEIKR

IC50 (human IL-13 [2]): 1 nM | IC50 (human IL-4 [3]): 13 nM
B2: IgG:9-44-502×10-176-535 (bispecific antibody, V domains shown, not shown: a dimerising Fc or GST)
V domain 1: DIQMTQSPSSLSASVGDRVTITCRASQNINFWLRWYQQKPGKAPTLLIYDASRSQSGVPSRFSGSGSGTDFTLTISSLQPEDFATYYCQQDLMPPYTFGQGTKVEIKR
V domain 2: B1 VL
notes: IgG-like format from vector pDOM30 (heavy and light chain cassettes); also called dual specific IgG-like format

EC50 (human IL-13 [4]): 4240 nM | IC50 (human IL-4 [5]): 8.18 nM
B3: DOM10-208-TVAAPS-DOM9-155-78 (bispecific antibody, from a related filing, part only)
chain: DIQMTQSPSSLSASVGDRVTITCRASSPITDGLAWYQQKPGKAPKLLIDTGSRLQSGVPSRFSGSGSGTDFTLTISSLQPEDFATYYCRQGAMGSYTFGQGTKVEIKRTVAAPSDIQMTQSPSSLSASVGDRVTITCRASRHIGDWLHWYQQKPGKAPKLLIAWASTLDSGVPSRFSGSGSGTDFTLTISSLQPEDFATYYCLQEGWGPPTFGQGTKVEIKR

IC50 (human IL-4 [5]): 12.5 nM
B4: DOM10-224 TVAAPS-DOM9-155-78 (bispecific antibody, from a related filing, part only)
chain: B3 chain with S27P, P28N, T30A, D31V, G32D, D49R, T50G, G51V

EC50 (human IL-13 [4]): 62 nM | IC50 (human IL-4 [5]): 6.91 nM
B5: DOM10-213 TVAAPS-DOM9-155-78 (bispecific antibody, from a related filing, part only)
chain: DIQMTQSPSSLSASVGDRVTITCRASQAIPWGLNWYQQKPGKAPKLLIYDVSSLQSGVPSRFSGSGSGTDFTLTISSLQPEDFATYYCQQDIHIPMTFGQGTKVEIKRTVAAPSDIQMTQSPSSLSASVGDRVTITCRASRHIGDWLHWYQQKPGKAPKLLIAWASTLDSGVPSRFSGSGSGTDFTLTISSLQPEDFATYYCLQEGWGPPTFGQGTKVEIKR

average inhibition of HDM induced PBMC proliferation at 100 nM dAb (human IL-4 [6]): 38%
B6: DOM9-44-502 (other)
VL: B2 V domain 1

average inhibition of HDM induced PBMC proliferation at 100 nM dAb (human IL-4 [6]): 23%
B7: DOM9-112-22 (other)
VH: EVQLLESWGGLVQPGGSLRLSCAASGFTFRNYGMAWVRQAPGKGLEWISWIDASGTETYYADPVKGRFTISRDNSKNTLYLQMNSLRAEDTAVYYCAKSLGRFDYWGQGTLVTVSS

TF-1 proliferation IC50, variant IL-13 [1]: 0.52 nM
B8: DOM10-53-316 (protein)
VH: GVQLLESGGGLVQPGGSLRLSCAASGFIFAWYDMGWARQAPGKGLEWVSSIDWHGEVTYYADSVKGRFTISRDNSKNTLYLQMNSLRAEDTAVYYCATAEDEPGYDYWGQGTLVTVSS

EC50 (human IL-13 [4]): 10.8 nM | IC50 (human IL-4 [5]): 6.65 nM
B9: DOM10-215 TVAAPS-DOM9-155-78 (bispecific antibody, from a related filing, part only)
chain: DIQMTQSPSSLSASVGDRVTITCRASQNIFADLNWYQQKPGKAPKLLIYMGSRLQSGVPSRFSGSGSGTDFTLTISSLQPEDFATYYCQQDYKFPLTFGQGTKVEIKRTVAAPSDIQMTQSPSSLSASVGDRVTITCRASRHIGDWLHWYQQKPGKAPKLLIAWASTLDSGVPSRFSGSGSGTDFTLTISSLQPEDFATYYCLQEGWGPPTFGQGTKVEIKR
